Laboratory results from patent publication US12257281B2, “Hydrophilic antibody-drug conjugates” (priority 2014, dated 2025).
Square brackets hold non-standard residues; d marks the D form. Peptide text beside a SMILES is read from it. * marks the point of attachment. Dolaproine = CO[C@@H]([C@@H]1CCCN1)[C@@H](C)C(=O)O; Hexanoyl(6-maleimido) = O=C1C=CC(=O)N1CCCCCC(=O)*; Dil = CC[C@H](C)[C@H](NC)[C@@H](CC(=O)O)OC; NMeV = CN[C@H](C(=O)O)C(C)C

Key:
[1] = Hydrophobic Interaction Chromatography (HIC) of 8-loaded ADCs; format: physicochemical; settings: for HIC RT (min) h1F6 8-loads: 8-loaded antibody drug conjugates with antibody h1F6, Table 2; for HIC retention time: ADCs containing the drug linkers as 8 loads, Table 1
Description: The hydrophilicity index is measured as the retention time of a conjugate to that of the corresponding unconjugated targeting agent (alone) under high performance liquid chromatography (HPLC) conditions, as further described herein. […] If a different hydrophobic interaction column and/or method is used, it can be calibrated using conjugates from Tables 2 as references to determine reference conjugate mobilities (elution times) on the selected column and/or method. The determined reference mobilities on the selected hydrophobic interaction column and/or method can then be used to calculate a hydrophilicity index of a test article (as would be determined following Example 3). For example, an auristatin T-Glu-Dpr-MA, an me-MMAF and an mc-vc-PABC-MMAE drug linkers can be used to form conjugates to use as references. In another example, an auristatin T-Glu-Dpr-MA-h1F6 ADC, an h1F6-mc-MMAF and an h1F6-mc-vc-PABC-MMAE ADC can be used as references.
Analysis of the ADCs was performed using Hydrophobic Interaction Chromatography (HIC). HIC is performed by running a linear gradient from 0-100% Mobile Phase B (MPB) where Mobile Phase A (MPA) consists of 1.5 M ammonium sulfate, 25 mM potassium phosphate, pH 7.0, and MPB consists of 75% 25 mM potassium phosphate, pH 7.0, 25% isopropanol. Separation was achieved using a Tosoh t-Butyl column (TSK-Gel Butyl-NPR 4.6×35 mm, PN: 14947) heated to 25° C. Test articles were prepared by diluting 70 μg of ADC into MPA such that the total salt concentration is greater than or equal to 1.0 M ammonium sulfate at a total volume of 100 μL. Samples were injected at 90 μL and eluted using a 12 minute gradient. Monitoring at λ=280 nm.

786-O tumors = test: Single dose mouse xenograft studies, h1F6 ADCs; format: in vivo; settings: FIG. 6
From the text: 786-O cells were obtained from American Type Culture Collection (ATCC, Manassas, VA) and propagated in culture conditions recommended by ATCC. To establish 786-O tumors, 5×10^6 cells were implanted into the right flank of athymic nu/nu female donor mice (Harlan, Indianapolis, IN). When donor tumors were approximately 500 mm^3, mice were euthanized and tumors were aseptically excised and ˜0.5×0.5 mm fragments were loaded into a sterilized 13-gauge trocar for implantation into nu/nu mice. When tumors reached ˜100 mm^3, mice were randomly allocated to treatment groups.
Experimental groups were treated via intraperitoneal injection with compounds at the dose and schedule indicated or alternatively left untreated. Tumors were measured periodically and volumes were calculated using the formula V=((L×W^2)/2). Animals were euthanized when tumors reached the volume of 1000 mm^3 or at the end of the study, whichever came first.
Tumor quadrupling times were chosen as time to endpoint (TTE), which was determined by using the non-liner regression analysis for exponential growth of each individual tumor growth data sets from each experimental animal. The median tumor quadrupling time was calculated based on the tumor volume at the beginning of treatment.
Statistical analysis was conducted using Prism (GraphPad) software for Windows. […]

Molecule | HIC RT (min) h1F6 8-loads [1] [min] | HIC retention time [1] [min] | activity of 8-loaded versus 4-loaded ADC (786-O tumors)
maleimidocaproyl-valine-citrulline-p-aminobenzyl-carbamoyl MMAE [mc-vc-PABC-MMAE] | 9.8 | 9.8 | 
CC[C@H](C)[C@@H]([C@@H](CC(=O)N1CCC[C@H]1[C@H](OC)[C@@H](C)C(=O)N[C@@H](Cc1ccccc1)C(=O)O)OC)N(C)C(=O)[C@@H](NC(=O)[C@H](C(C)C)N(C)C(=O)CCCCCN1C(=O)C=CC1=O)C(C)C [mc-MMAF, maleimidocaproyl MMAF] ({Hexanoyl(6-maleimido)}-[NMeV]V[Dil][Dolaproine]F-OH) | 7.0 | 7.0 | 
maleimidocaproyl-valine-citrulline-p-aminobenzyl-carbamoyl MMAF [mc-vc-PABC-MMAF] | 8.2 | 8.2 | 
h1F6-me-vc-PABC-MMAF (conjugate, chains of the INN, looked up, me-vc-PABC-MMAF drug conjugate) VH: QVQLVQSGAEVKKPGASVKVSCKASGYTFTNYGMNWVRQAPGQGLKWMGWINTYTGEPTYADAFKGRVTMTRDTSISTAYMELSRLRSDDTAVYYCARDYGDYGMDYWGQGTTVTVSS VL: DIVMTQSPDSLAVSLGERATINCRASKSVSTSGYSFMHWYQQKPGQPPKLLIYLASNLESGVPDRFSGSGSGTDFTLTISSLQAEDVAVYYCQHSREVPWTFGQGTKVEIK |  |  | 4-loaded ADC gave better activity than the 8-loaded ADC
